Experimental data as given in publication PMC12395675.

Key:
[1] = viral titre at 24 hpi, MOI 0.01; details: glycan lost; control: rPEDV-WT
[2] = BAC transfection of Vero cells; CPE, western blot; details: glycan lost; control: rPEDV-WT

B1: spike (S) protein: N688Q (protein)
parent chain: MKSLTYFWLFLPVLSTLSLPQDVTRCSANTNFRRFFSKFNVQAPAVVVLGGYLPIGENQGVNSTWYCAGQHPTASGVHGIFVSHIRGGHGFEIGISQEPFDPSGYQLYLHKATNGNTNATARLRICQFPSIKTLGPTANNDVTTGRNCLFNKAIPAHMSEHSVVGITWDNDRVTVFSDKIYYFYFKNDWSRVATKCYNSGGCAMQYVYEPTYYMLNVTSAGEDGISYQPCTANCIGYAANVFATEPNGHIPEGFSFNNWFLLSNDSTLVHGKVVSNQPLLVNCLLAIPKIYGLGQFFSFNQTIDGVCNGAAVQRAPEALRFNINDTSVILAEGSIVLHTALGTNFSFVCSNSSDPHLATFATPLGATQVPYYCFLKVDTYNSTVYKFLAILPPTVREIVITKYGDFYVNGFGYLHLGLLDAVTINFTGHGTDDDVSGFWTIASTNFVDALIEVQGTAIQRILYCDDPVSQLKCSQVSFDLDDGFYPISSRNLLSHEQPISFVTLPSFNDHSFVNITVSASFGGHSGANLIASDTTINGFSSFCVETRQFTISLFYNVTNSYGYVSKSQDSNCPFTLQSVNDYLSFSKFCVSTSLLASACTIDLFGYPEFGSGVKFTSLYFQFTKGELITGTPKPLVGVTDVSFMTLDVCTKYTIYGFKGEGIITLTNSSFLAGIYYTSDSGQLLAFKNVTSGAVYSVTPCSFSEQAAYVDDDIVGVISSLSNSTFNSTRELPGFFYHSNDGSNCTEPVLVYSNIGVCKSGSIGYVLSKSGQVKIAPTVTGNISIPTNFSMSIRTEYLQLYNTPVSVDCATYVCNGNSRCKQLLTQYIAACKTIESALQLSARLESAEVNSMLTISEEALQLATISSFNGDGYNFTNVLGVSVRDPASGRVVQKRSFIEDLLFNKVVTNGLGTVDEDYKRCSNGRSVADLVCAQYYSGVMVLPGVVDAEKLHMYSASLIGGMVLGGFTAAAALPFSYAVQARLNYLALQTDVLQRNQQLLAESFNSAIGDITSAFESVKEAISQTSKGLNTVAHALTKVQEVVNSQGAALTQLTVQLQHNFQAISSSIDDIYSRLDILSADVQVDRLITGRLSALNAFVAQTLTKYTEVQASRKLAQQKVNECVKSQSQRYGFCGGDGEHIFSLVQAAPQGLLFLHTVLVPGDFVDVIAIAGLCVNDEIALTLREPGLVLFTHELQNHTATEYFVSSRRMFEPRKPTVSDFVQIESCVVTYVNLTRDQLPDVIPDYIDVNKTLYEILASLPNRTGPSLPLDVFNATYLNLTGEIADLEQRSESLRNTTEELQSLIYNINNTLVDLEWLNRVETYIKWPWWVWLIIFIVLIFVVSLLVFCCISTGCCGCCGCCGACFAGCCRGPRLQPYEAFEKVHVQ
other: viral replication [1]: no change | other: virus rescue (viability), other: viruses recovered/attempts [2]: no change
